This data set concerns MS2 coat protein. The experiment in a line: apparent KD of MS2 coat protein; designed switch direction (-1 OFF switch, 1 ON switch): -1; higher = weaker reporter binding. The procedure, abridged: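 For each design, the apparent KD is the median over clusters of curves fitted to normalised cluster fluorescence. Clusters held RNA switches with common flanks, transcribed on Illumina chips by stalled E. coli RNA polymerase. These were titrated with SNAP-549-labelled MS2 coat protein, doubling from 0.7 or 1.5 nM to 3 µM, without input, with 200 uM small-molecule ligand, or with an oligonucleotide input.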

[1] abbreviates: input ligand: microRNA oligo, concentration not stated.
The mark [2] stands for this setting: Eterna round: R95, input ligand: microRNA oligo, concentration not stated.
Where [3] appears, read: Eterna round: R95, input ligand: FMN 200 uM.
Where [4] appears, read: Eterna round: R95, input ligand: none.

As for “UUUCUUCAUAUCACAUGAGGAUCACCCAUGUUAUUCAUCGCGUAGGAUAUCGAGAUUUUUUUUUACGAGAAGGACGUAUUGAUA [JR_ExcNG3_Sub073] (Eterna round: R96, puzzle: Exclusion NG 3)”, the “apparent KD of MS2 coat protein” value runs as follows: (input ligand: FMN 200 uM) 49 nM; under setting [1], 51.6 nM; (input ligand: none) 52.2 nM.

As for “UUUGAAUAAGUGAGGAUAUACUGUUAGUAUUGAUUGUAGAAGGUACAUGAGGAUCACCCAUGUUUAGUAUUUAU [JR_BME4_Sub038] (puzzle: Brourd's mod of Exclusion 4)”, the “apparent KD of MS2 coat protein” value under setting [2] came out at 15.6 nM.

For the sequence “UUUGCAAGCUUUAGAUCCCACAUGAGGAUCACCCAUGUUGCUGCCGUGAGGUAGCAUUUAACUAAUGCUCGUCUUAU [JL TOV1 3.48] (Eterna round: R97, puzzle: Sensor, turn-off variant 1)”, the “apparent KD of MS2 coat protein” value reads like this: (input ligand: FMN 200 uM) 109 nM; (input ligand: none) 169 nM.

Regarding “UUUGGGUCAGGAUAUUGUUAGUUUAGUUGUUUGUAUUAGUUCGAGAAGGGACAUGAGGAUCACCCAUGUGGUUU [Ex4 #78] (Eterna round: R97, puzzle: Exclusion 4)”, the “apparent KD of MS2 coat protein” value by setting is: (input ligand: FMN 200 uM) 81.4 nM; (input ligand: none) 85.3 nM.

Regarding “UUUGUAUAUGAAGGAUAUACUUAACAUGAGGAUCACCCAUGUGGUGUUGUGAGUGAGUGAGUUUAGUAGAAGGUCAAGUAUUUU [JMF's solution 50] (Eterna round: R96, puzzle: Exclusion NG 2)”, the “apparent KD of MS2 coat protein” value amounted to 403 nM (input ligand: FMN 200 uM), 298 nM under setting [1] and 367 nM (input ligand: none).

Regarding “UUUGUCAGCGUCGAAGUUUACAUGAGGAUCACCCAUGUGAUCAACACAGGCAUAUAAUUAGUAAUGAGUUCGUCUUC [Eternabot (L2) Solution 40] (Eterna round: R97, puzzle: Sensor, turn-off variant 1)”, the “apparent KD of MS2 coat protein” value runs as follows: (input ligand: FMN 200 uM) 24.9 nM; (input ligand: none) 30.2 nM.

As for “UUUGUUUUGGUAGGAUAUACUUUUAAUUUCUCUUUCCUUACAUGAGGAUCACCCAUGUUUACAUUGUAGAAGGACCACUUUGUU [JR_ExcNG2_Sub050] (Eterna round: R96, puzzle: Exclusion NG 2)”, the “apparent KD of MS2 coat protein” value under setting [1] was 15.9 nM.

With “UUUUAACAUGAGGAUCACCCAUGUCAGGAUAUGCUAUUUUUUUUUUUUUUUUUUUUUUGCAGAAGGGACAUUUU [My solution] (puzzle: Exclusion 1)”, the “apparent KD of MS2 coat protein” value by setting is: under setting [3], 78.5 nM; under setting [2], 29.4 nM; under setting [4], 55.7 nM.

Regarding “UUUUAACAUGAGGAUCACCCAUGUGAGGAUAUCGAAAUUUAUAUUAAUAUUUAUUUAUCGAGAAGGCACAUUUU [JMF 64] (puzzle: Exclusion 1)”, the “apparent KD of MS2 coat protein” value under setting [2] was determined as 120 nM.

As for “UUUUAACAUGAGGAUCACCCAUGUGAGGAUAUCGAAAUUUAUAUUAAUAUUUUUAUUACGAGAAGGCACAUUUU [JMF 74] (puzzle: Exclusion 1)”, the “apparent KD of MS2 coat protein” value under setting [2] is 70.5 nM.

In the case of “UUUUAACAUGAGGAUCACCCAUGUGAGGAUAUCGAAAUUUAUAUUUAUAUUAAUUUUACGAGAAGGCACAUUUU [JMF 90] (puzzle: Exclusion 1)”, the “apparent KD of MS2 coat protein” value under setting [2] came out at 120 nM.

Turning to “UUUUAACAUGAGGAUCACCCAUGUGAGGAUAUCGAAAUUUAUAUUUAUAUUAAUUUUUCGAGAAGGCACAUUUU [JMF 89] (puzzle: Exclusion 1)”, the “apparent KD of MS2 coat protein” value under setting [2] stood at 177 nM.

Regarding “UUUUAACAUGAGGAUCACCCAUGUGAGGAUAUCGAAAUUUAUAUUUAUAUUUAUAAUUCGAGAAGGCACAUUUU [JMF 93] (puzzle: Exclusion 1)”, under setting [2], the “apparent KD of MS2 coat protein” value was 181 nM.

For the sequence “UUUUAACAUGAGGAUCACCCAUGUGAGGAUAUCGAAAUUUAUAUUUAUAUUUAUAUAACGAGAAGGCACAUUUU [JMF 95] (puzzle: Exclusion 1)”, the “apparent KD of MS2 coat protein” value under setting [2] stood at 68.3 nM.

Consider “UUUUAACAUGAGGAUCACCCAUGUGAGGAUAUCGAAAUUUAUAUUUAUAUUUAUUAAUCGAGAAGGCACAUUUU [JMF 100] (puzzle: Exclusion 1)”, for which, under setting [2], the “apparent KD of MS2 coat protein” value was determined as 121 nM.

On to “UUUUAACAUGAGGAUCACCCAUGUGAGGAUAUCGUAUUUUUUAUUAAUAUUAAUAAAACGAGAAGGCACAUUUU [JMF 17] (Eterna round: R96, puzzle: Exclusion 1)”, for which the “apparent KD of MS2 coat protein” value is, setting by setting: (input ligand: FMN 200 uM) 96.9 nM; under setting [1], 51.4 nM; (input ligand: none) 65.5 nM.

Turning to “UUUUAACAUGAGGAUCACCCAUGUGAGGAUAUCGUAUUUUUUAUUAAUAUUAAUAAAACGAGAAGGCACAUUUU [JMF 17] (puzzle: Exclusion 1)”, the “apparent KD of MS2 coat protein” value under setting [2] came to 86.1 nM.

With “UUUUAACAUGAGGAUCACCCAUGUGAGGAUAUGCUAUUUUUUUUUUUUUUUUUUUUUUGCAGAAGGCACAUUUU [My solution] (puzzle: Exclusion 1)”, the “apparent KD of MS2 coat protein” value reads like this: under setting [3], 12.5 nM; under setting [2], 526 nM; under setting [4], 26 nM.

Turning to “UUUUAAUAUGAAGGAUAUACUUAACAUGAGGAUCACCCAUGUGGUGUUGUGAGUGAGUGAGUUUAGUAGAAGGUCAAGUAUUUU [JMF's solution 47] (Eterna round: R96, puzzle: Exclusion NG 2)”, the “apparent KD of MS2 coat protein” value runs as follows: (input ligand: FMN 200 uM) 703 nM; under setting [1], 559 nM; (input ligand: none) 428 nM.

On to “UUUUAAUAUGAAGGAUAUACUUAACAUGAGGAUCACCCAUGUGGUGUUGUGAGUGAGUGAGUUUAGUAGAAGGUCAAUUCUUUU [JMF's solution 89] (Eterna round: R96, puzzle: Exclusion NG 2)”, for which the “apparent KD of MS2 coat protein” value runs as follows: (input ligand: FMN 200 uM) 563 nM; under setting [1], 442 nM; (input ligand: none) 366 nM.

“UUUUACAUGCUGAGAUCCUACAUGAGGAUCACCCAUGUGGUCCGGUGACUUUUGUCACCGGACUUAGCUCGUCUUGU [salish99_S_TOV1_R5_100] (Eterna round: R97, puzzle: Sensor, turn-off variant 1)”: the “apparent KD of MS2 coat protein” value is, setting by setting: (input ligand: FMN 200 uM) 191 nM; (input ligand: none) 288 nM.

Take “UUUUACGGAGGAUAUACAUUUUUUUUAUUAUCCUCAUUAUUACAUGAGGAUCACCCAUGUAGAAGGCCGAUUUU [My Design] (puzzle: Exclusion 2)”: under setting [2], the “apparent KD of MS2 coat protein” value was determined as 59.1 nM.

With “UUUUACUGAGGAUAUACAUUUUUUUAUUUAUUUAUAAUAUUACAUGAGGAUCACCCAUGUAGAAGGCAGAUUUU [My Design] (puzzle: Exclusion 2)”, under setting [2], the “apparent KD of MS2 coat protein” value worked out at 26.7 nM.

“UUUUAGAGAGGAUAUAUAAUGUGAAACAUGAGGAUCACCCAUGUAAUAUUAUGGAUGUAAAUAGAAGGCUCAUUUA [JL-ex5-3.04] (puzzle: Exclusion 5)”: the “apparent KD of MS2 coat protein” value is, setting by setting: under setting [3], 31.9 nM; under setting [2], 36.1 nM; under setting [4], 35.1 nM.

With “UUUUAGCAAGCUAUUAUUAACAUGAGGAUCACCCAUGUGCAUCCAAAAUUACUUUUAGAUCUUGCUCGUCUUAUAUA [JR_STOV1_v2_Sub084] (Eterna round: R97, puzzle: Sensor, turn-off variant 1)”, the “apparent KD of MS2 coat protein” value by setting is: (input ligand: FMN 200 uM) 1260 nM; (input ligand: none) 1600 nM.

Turning to “UUUUAGCGAGGAUAUACAUUUUUUUUAUUAUCCUCAUUAUUACAUGAGGAUCACCCAUGUAGAAGGCGCAUUUU [My Design] (puzzle: Exclusion 2)”, the “apparent KD of MS2 coat protein” value under setting [2] worked out at 48.9 nM.

With “UUUUAGGGAGGAUAUACAUUUUUUUUAUUAUCCUCAUUAUUACAUGAGGAUCACCCAUGUAGAAGGCCCAUUUU [My Design] (puzzle: Exclusion 2)”, the “apparent KD of MS2 coat protein” value under setting [2] is 84 nM.

Take “UUUUAGUAAGGAUAUGAUUAGAUCUACUUCGGUAGAUCUAAUCAGAAGGUACAUGAGGAUCACCCAUGUAGAUU [Mod of Brourd 2 - Jieux - Exclusion 4] (Eterna round: R97, puzzle: Exclusion 4)”: the “apparent KD of MS2 coat protein” value is, setting by setting: (input ligand: FMN 200 uM) 24.1 nM; (input ligand: none) 18.8 nM.

Consider “UUUUAUUGCAAGGAUAUGCAAUUUAUUAUUUAUGCAGAAGGUGCUACAUGAGGAUCACCCAUGUUUCUGGGUUU [JR_E6_Sub044] (puzzle: Exclusion 6)”, for which the “apparent KD of MS2 coat protein” value runs as follows: under setting [3], 253 nM; under setting [2], 91.8 nM; under setting [4], 86.7 nM.

With “UUUUCUCACGUCAGGAUAUGCUAAAAGGUGACAAGGUAGAAGGGACAUGAGGAUCACCCAUGUGCUUUCAUGAG [Eternabot (L2) Solution 41] (Eterna round: R97, puzzle: Brourd's mod of Exclusion 4)”, the “apparent KD of MS2 coat protein” value runs as follows: (input ligand: FMN 200 uM) 15.2 nM; (input ligand: none) 13.8 nM.

On to “UUUUGAAAGUGAGGAUAUGACAUGAGGAUCACCCAUGUAAAGGGAGUUGAAUAUAUAGAAAGAUAUCAGAAGGCACAAAUGUUU [JR_ExcNG2_Sub001] (Eterna round: R96, puzzle: Exclusion NG 2)”, for which the “apparent KD of MS2 coat protein” value under setting [1] was found to be 115 nM.

For the sequence “UUUUGAUAUGAAGGAUAUACUUAACAUGAGGAUCACCCAUGUGGUGUUGUGAGUGAGUGAGUUUAGUAGAAGGUCAAUUAUUUU [JMF's solution 26] (Eterna round: R96, puzzle: Exclusion NG 2)”, the “apparent KD of MS2 coat protein” value runs as follows: (input ligand: FMN 200 uM) 470 nM; under setting [1], 293 nM; (input ligand: none) 303 nM.

Consider “UUUUGGCAUGUAGGAUAUGGGUCCGAUUAGGAUUUAGAAGGACAUGAGGAUCACCCAUGUGCAUUUAAUUGGUCUUUAUUUUUU [EXclNG1-LROPPY14] (Eterna round: R96, puzzle: Exclusion NG 1)”, for which the “apparent KD of MS2 coat protein” value under setting [1] was 62.3 nM.

Take “UUUUGGCAUGUAGGAUAUGGGUCCGAUUAGGAUUUAGAAGGACAUGAGGAUCACCCAUGUGCCCUUAAUUGGUCUUUUUUUUUU [EXclNG1-LROPPY17] (Eterna round: R96, puzzle: Exclusion NG 1)”: the “apparent KD of MS2 coat protein” value reads like this: (input ligand: FMN 200 uM) 55.8 nM; under setting [1], 35.3 nM; (input ligand: none) 44.4 nM.

The values are drawn from the supplement of paper PMC9170038.
